Biological target: Shp2 (UniProt Q06124)
Assay: GST pull-down from lysate, LC-MS/MS
Details: reference: wild-type GST-PD-1ICD; sites Y223,Y248

With “PD-1 ICD, 194-288 (from UniProt Q15116) PD-1ICD-FF (Y223F, Y248F)” the “binding against the reference” value was “weaker”.

— PMC9287124
